According to patent US20170008955A1 (CNJ, published 2017):

Columns and labels:
[1] = target: T1, cSNK:BSA conjugate (bovine, head-to-tail cyclized; conjugated to BSA carrier); experiment: BLI 2:1 fit, site 2 (KD2); 50 nM row
T1 construct: also called BSA-cSNK
Protocol: (§1) Biolayer interferometry (Octet […], ForteBio) was used to qualitatively/quantitatively assess the interactions between humanized versions of 5E3 and cSNK:BSA conjugate. […] MAbs were loaded onto sensors and then washed in PBST. Each sensor was associated with one of several cSNK:BSA standards (100 nM to 0 nM) and then washed in PBST. Data was processed statistically using ForteBio Data Analysis software to determine the strength of antigen-antibody binding (KD). For each mAb analyzed, a 2:1 model provided the “best fit”.

[2] = target: T1, cSNK:BSA conjugate; experiment: BLI 2:1 fit, site 2 (kon2); 25 nM row
Protocol: as §1

[3] = target: T1, cSNK:BSA conjugate; experiment: BLI 2:1 fit, site 2 (KD2); 12.5 nM row
Protocol: as §1

[4] = target: T1, cSNK:BSA conjugate; experiment: BLI 2:1 fit, site 1; 1.56 nM row
Protocol: as §1

[5] = target: T1, cSNK:BSA conjugate; experiment: BLI (Octet), 1:1 model, BSA-cSNK
Protocol: Biolayer interferometry (Octet Red92, ForteBio) was used to qualitatively/quantitatively assess the interactions between humanized 5E3 and Δ5E3 mAbs to the cSNK:BSA conjugate. […] MAbs were loaded onto sensors and then washed in PBST. Each sensor was associated with one of several cSNK:BSA standards (100 nM to 0 nM) and then washed in PBST. Data was processed statistically using ForteBio Data Analysis software to determine the strength of antigen-antibody binding (KD). For each mAb analyzed, a 1:1 model provided the “best fit”.

[6] = target: T1, cSNK:BSA conjugate; experiment: BLI 2:1 fit, site 2 (kon2); 1.56 nM row
Protocol: as §1

[7] = target: T1, cSNK:BSA conjugate; experiment: BLI 2:1 fit, site 2 (kon2); 6.25 nM row
Protocol: as §1

[8] = target: T1, cSNK:BSA conjugate; experiment: BLI 2:1 fit, site 1; 25 nM row
Protocol: as §1

[9] = target: T1, cSNK:BSA conjugate; experiment: BLI 2:1 fit, site 2 (kon2); 100 nM row
Protocol: as §1

[10] = target: T1, cSNK:BSA conjugate; experiment: BLI (Octet RED96), 2:1 kinetics, KD2, summary table
Protocol: as §1
(§2) Table 7 summarizes the affinity constants of humanized 5E3 IgG1, IgG2 and IgG4 constructs. The KD ranges were determined using 2:1 kinetics of binding of analyte (BSA-cSNK) in solution to two different binding sites on the surface (immobilized bivalent, monospecific 5E3) in comparison to murine 5E3 using biolayer interferometry (Octet RED96).

[11] = target: T1, cSNK:BSA conjugate; experiment: BLI (Octet RED96), 2:1 kinetics, KD1, summary table
Protocol: as §1, §2

[12] = target: T1, cSNK:BSA conjugate; experiment: BLI 2:1 fit, site 2 (kon2); 50 nM row
Protocol: as §1

[13] = target: T1, cSNK:BSA conjugate; experiment: BLI 2:1 fit, site 2 (kdis2); 6.25 nM row
Protocol: as §1

[14] = target: T1, cSNK:BSA conjugate; experiment: BLI 2:1 fit, site 2 (kdis2); 1.56 nM row
Protocol: as §1

[15] = target: T1, cSNK:BSA conjugate; experiment: BLI 2:1 fit, site 2 (KD2); 100 nM row
Protocol: as §1

[16] = target: T1, cSNK:BSA conjugate; experiment: BLI 2:1 fit, site 2 (kon2); 12.5 nM row
Protocol: as §1

[17] = target: T1, cSNK:BSA conjugate; experiment: BLI 2:1 fit, site 1; 6.25 nM row
Protocol: as §1

[18] = target: T1, cSNK:BSA conjugate; experiment: BLI 2:1 fit, site 2 (kdis2); 3.13 nM row
Protocol: as §1

[19] = target: T1, cSNK:BSA conjugate; experiment: BLI 2:1 fit, site 2 (kdis2); 50 nM row
Protocol: as §1

[20] = target: T1, cSNK:BSA conjugate; experiment: BLI 2:1 fit, site 1; 12.5 nM row
Protocol: as §1

[21] = target: T1, cSNK:BSA conjugate; experiment: BLI 2:1 fit, site 2 (kdis2); 12.5 nM row
Protocol: as §1

[22] = target: T1, cSNK:BSA conjugate; experiment: BLI 2:1 fit, site 2 (kon2); 3.13 nM row
Protocol: as §1

[23] = target: T1, cSNK:BSA conjugate; experiment: BLI 2:1 fit, site 2 (KD2); 6.25 nM row
Protocol: as §1

[24] = target: T1, cSNK:BSA conjugate; experiment: BLI 2:1 fit, site 2 (KD2); 25 nM row
Protocol: as §1

[25] = target: T1, cSNK:BSA conjugate; experiment: BLI 2:1 fit, site 1; 100 nM row
Protocol: as §1

T1 sequence (P02769 25-607 limits assumed): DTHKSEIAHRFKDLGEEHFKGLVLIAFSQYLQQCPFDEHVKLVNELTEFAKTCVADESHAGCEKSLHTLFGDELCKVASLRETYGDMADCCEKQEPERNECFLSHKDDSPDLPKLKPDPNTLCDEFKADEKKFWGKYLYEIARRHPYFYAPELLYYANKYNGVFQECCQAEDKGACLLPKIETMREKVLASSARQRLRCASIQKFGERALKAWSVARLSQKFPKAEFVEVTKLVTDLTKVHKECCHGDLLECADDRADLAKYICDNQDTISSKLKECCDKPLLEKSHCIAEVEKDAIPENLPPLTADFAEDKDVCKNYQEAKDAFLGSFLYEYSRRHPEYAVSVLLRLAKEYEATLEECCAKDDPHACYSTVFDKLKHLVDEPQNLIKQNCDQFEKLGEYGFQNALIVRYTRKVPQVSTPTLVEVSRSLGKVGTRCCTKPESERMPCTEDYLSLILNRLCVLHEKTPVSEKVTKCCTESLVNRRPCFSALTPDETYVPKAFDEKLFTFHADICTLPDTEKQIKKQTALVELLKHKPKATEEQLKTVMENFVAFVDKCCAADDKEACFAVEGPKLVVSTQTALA

B1: hu5E3-IgG4 (antibody, V domains shown)
VH: QVQLQQSGPEVKKPGASVKISCKASGYIFTSYYIQWVIHAPGQGLEWIGWIYPGNVNTKYNEKFKGKATLTADKSSSTAYMELSSLTSEDTAVYFCARMDYEAHYWGQGTTVTVSS
VL: DIQMTQSPSSLSASVGDRVTITCRASQEISGYLTWLQQKPEGAIKRLIYAASTLDSGVPKRFSGSRSGSDYSLTISSLQPEDFATYNCLQYANYPRTFGGGTKLEIK
notes: human IgG4/kappa; also called humanized 5E3 IgG4
Kd [1]: 3.04 nM | kon [2]: 7.52e+06 M⁻¹ s⁻¹ | Kd [3]: 3.04 nM | Kd [4]: 0.633 nM | koff [4]: 0.00055 s⁻¹ | kon [4]: 868000 M⁻¹ s⁻¹ | Kd [5]: 1.31 nM | kon [6]: 7.52e+06 M⁻¹ s⁻¹ | kon [7]: 7.52e+06 M⁻¹ s⁻¹ | Kd [8]: 0.633 nM | koff [8]: 0.00055 s⁻¹ | kon [8]: 868000 M⁻¹ s⁻¹ | kon [9]: 7.52e+06 M⁻¹ s⁻¹ | Kd [10]: 0.304 nM | Kd [11]: 0.633 nM | kon [12]: 7.52e+06 M⁻¹ s⁻¹ | koff [13]: 0.0229 s⁻¹ | koff [14]: 0.0229 s⁻¹ | Kd [15]: 3.04 nM | kon [16]: 7.52e+06 M⁻¹ s⁻¹ | Kd [17]: 0.633 nM | koff [17]: 0.00055 s⁻¹ | kon [17]: 868000 M⁻¹ s⁻¹ | koff [18]: 0.0229 s⁻¹ | koff [19]: 0.0229 s⁻¹ | Kd [20]: 0.633 nM | koff [20]: 0.00055 s⁻¹ | kon [20]: 868000 M⁻¹ s⁻¹ | koff [21]: 0.0229 s⁻¹ | kon [22]: 7.52e+06 M⁻¹ s⁻¹ | Kd [23]: 3.04 nM | Kd [24]: 3.04 nM | Kd [25]: 0.633 nM | koff [25]: 0.00055 s⁻¹ | kon [25]: 868000 M⁻¹ s⁻¹
